Assay results reported in US20210268070A1, “Use of Immunomodulators to Control Infection and Stimulate Healing in Normal and Diabetic Wounds” (priority 2018, published 2021).
Entries after “also recorded” stand apart in the source; their conditions may differ.

What was measured:
P. aeruginosa PA103 [1] = test: Wound model of infection with PA103 in diabetic db/db mice; assay type: in vivo; details: for infection control against P. aeruginosa in diabetic wounds infected with PA103: 10^6 PA103, topical at time of surgery & infection, 24 h, FIG. 2D
Experimental: (§1) The implant model of infection in C57B mice was used for 10^6 PA103 (FIG. 2A) or 10^6 USA300 MRSA (FIG. 2C). The wound model of infection was used for 10^6 PA103 in C57BL mice (FIG. 2B) or diabetic db/db mice (FIG. 2D). Infection was carried out at the time of surgery by adding bacteria directly to the surgical sites. Immunomodulators, namely, LPS (10 ng or 100 ng), fMLP (10 ng or 100 ng), CCL3 (1 μg) were added topically at the surgical sites at the time of surgery & infection. GM-CSF (10 μg/kg), tobramycin (Tob at 3.5 mg/kg), and vancomycin (40 mg/kg) were added systemically by i.p. injection 1 h before surgical implantation and infection. Infection levels were determined 24 h following infection (N>4 animals/group; NS=not significant, * p<0.01, ** p<0.001, ***p<0.0001 One-way ANOVA).
(§2) We assessed these immunomodulators for their ability to control wound and/or implant SS's in normal (C57BL/6) or diabetic (db/db) mice. We acknowledge that diabetic individuals are not as immunocompromised as other immunocompromised patient groups. […] All immunomodulators were added locally at the surgical sites at the time of infection, except GM-CSF (10 μg/kg) which was administered systemically by i.p. injection 1 h prior to surgery per its FDA-approved route of delivery. […] CCL3 and GM-CSF are also tested using the implant model of infection. Here, we tested CCL3 and GM-CSF in the wound model of infection in C57B mice.
Implant surgery and wound surgery and surgical site infection are performed according to the following method. On the day of surgery, all mice are anesthetized by an intraperitoneal injection of a ketamine/xylazine mixture (90 mg/kg ketamine+5 mg/kg xylazine for mice). The back of the animals is shaved using an electric shave and scrubbed with alcohol swabs 3 times, a topical antiseptic solution (Hibiclens; chlorhexidine gluconate) is applied to the skin. The surgical procedures are performed with sterile instruments, sterile surgical gloves, and aseptic techniques as follows. For wound surgical procedure, a sterile biopsy punch (5-7 mm diameter) is used to punch through the full thickness of the back skin below the shoulder blades. Four 5-7 mm skin wounds are made on the back of each mouse. Wounds placed in this area cannot be reached by the animals and therefore are protected from self-licking. For implant surgery, a 4-mm long lateral skin incision is made on the upper back, and the skin is retracted. The space above the muscle is opened using blunt dissection with fine forceps, to create a rostral fascia indentation. Then, immunomodulators at indicated concentrations (in a 20 μL volume) or PBS control are injected into the fascia indentation. After a 1 min wait for fluid to be absorbed, a disc implant, (1.87 mm diameter, 0.68 mm thick (Part # VP 724F-1)), is inserted in the fascia indentation. […] For implant surgery, the fascia indentation is left open, while the skin is closed with 4-0 nylon sutures. The fascia above the back muscles in mice is too thin and fragile to allow it to be sutured closed around the implant.

P. aeruginosa PA103 [2] = test: Wound model of infection with PA103 in normal (C57BL) mice; assay type: in vivo; details: for infection control against P. aeruginosa PA103 in normal wounds: C57B mice, immunomodulator added locally at time of infection, compared to PBS, FIGS. 3A, 4A, 4B, 6A
Experimental: as §1
(15A) C57BL/6 mice received 40 mg/kg prophylaxis (Sys) vancomycin (Vanc) or 3.5 mg/kg tobramycin (Tobra) by i.p. injection. (15A) 1 h after antibiotic administration, 106 CFU of USA300 was added to implant after insertion into facia (Implant Model). (15B) 1 h after antibiotic administration, 10^6CFU of USA300 or 106CFU PA103 (Pa) were added full-thickness wounds in of C57BL/6 (Wound Model). Infection levels at implant surgical site (Tissue & Implant) or a distant site (Spleen), or wound tissues were assessed 24 h following infection. (N>4 animals/group, * p<0.01, ***p<0.0001, One-way ANOVA).
as §2
Implant surgery and wound surgery and surgical site infection are performed according to the following method. On the day of surgery, all mice are anesthetized by an intraperitoneal injection of a ketamine/xylazine mixture (90 mg/kg ketamine+5 mg/kg xylazine for mice). The back of the animals is shaved using an electric shave and scrubbed with alcohol swabs 3 times, a topical antiseptic solution (Hibiclens; chlorhexidine gluconate) is applied to the skin. The surgical procedures are performed with sterile instruments, sterile surgical gloves, and aseptic techniques as follows. For wound surgical procedure, a sterile biopsy punch (5-7 mm diameter) is used to punch through the full thickness of the back skin below the shoulder blades. Four 5-7 mm skin wounds are made on the back of each mouse. Wounds placed in this area cannot be reached by the animals and therefore are protected from self-licking. For implant surgery, a 4-mm long lateral skin incision is made on the upper back, and the skin is retracted. The space above the muscle is opened using blunt dissection with fine forceps, to create a rostral fascia indentation. Then, immunomodulators at indicated concentrations (in a 20 μL volume) or PBS control are injected into the fascia indentation.

leukocytes = test: Leukocyte migration (H&E staining) and activation (MPO ELISA) in normal wound; assay type: in vivo, C57B mice; details: for leukocyte migration and neutrophil activation in a normal wound: compared to PBS, FIGS. 10A-10D
Description: FIGS. 10A-10D illustrate that immunomodulatory treatment enhances leukocyte migration and neutrophil activation in a normal wound. (10A, 10B—CCL3, 10C—LPS, fMLF, 10D—GM-CSF), N=4; Significance determined as compared to PBS *<0.05, **p<0.01, ***p<0.001.
We next examined the impact of CCL3 topical treatment on leukocyte migration by H&E staining, and on leukocyte activation by myeloperoxidase (MPO) measurements by ELISA. (MPO is primarily used as a marker for neutrophil activation but it can also be expressed to lesser extent in macrophages).

[3] = topical CCL3 to C57B wounds, regardless of infection, FIG. 10A, 10B

`CSCC[C@H](NC=O)C(=O)N[C@@H](CC(C)C)C(=O)N[C@@H](Cc1ccccc1)C(=O)O` [fMLP, N-Formylmethionyl-leucyl-phenylalanine] was tested, and the “infection control against P. aeruginosa in diabetic wounds infected with PA103” value (P. aeruginosa PA103 [1]; db/db mice) was “significantly improved”, the “infection control against P. aeruginosa PA103 in normal wounds” value (P. aeruginosa PA103 [2]) was “enhance; also recorded: significantly improved” and the “leukocyte migration and neutrophil activation in a normal wound” value (leukocytes) was “enhances”.

lipopolysaccharide [LPS] was tested, and the “antimicrobial defenses in diabetic wounds against P. aeruginosa” value (P. aeruginosa PA103 [1]; compared to PBS, FIG. 13A) was “increases”, the “infection control against P. aeruginosa in diabetic wounds infected with PA103” value (P. aeruginosa PA103 [1]; db/db mice) was “significantly improved” and the “infection control against P. aeruginosa PA103 in normal wounds” value (P. aeruginosa PA103 [2]) was “enhance; also recorded: significantly improved”. The “leukocyte migration and neutrophil activation in a normal wound” value (leukocytes) was “enhances”.

B1: Chemokine (C-C motif) ligand 3 (protein, listed as Homo sapiens)
chain: MQVSTAALAVLLCTMALCNQFSASLAADTPTACCFSYTSRQIPQNFIADYFETSSQCSKPGVIFLTKRSRQVCADPSEEWVQKYVSDLELSA
notes: class 1 immunomodulator
With B1 the “infection control in diabetic wounds” value (P. aeruginosa PA103 [1]; P. aeruginosa PA103 10^3, compared to PBS, FIG. 11A) was “increases”, the “infection control against P. aeruginosa in diabetic wounds infected with PA103” value (P. aeruginosa PA103 [1]; db/db mice) was “significantly improved” and the “infection control in diabetic animals, compared with LPS or fMLP” value (P. aeruginosa PA103 [1]; db/db mice, PA103, FIG. 2D) was “significantly more effective”. The “controlling PA103 infection, compared with prophylaxis tobramycin” value (P. aeruginosa PA103 [2]; C57B mice wound model, topical CCL3 1 μg, both at 10^3 and 10^6 CFU, tobramycin 3.5 mg/kg i.p., FIG. 2B) was “as effective”, the “infection control against P. aeruginosa PA103 in normal wounds” value (P. aeruginosa PA103 [2]) was “enhances; also recorded: effective” and the “leukocyte migration and neutrophil activation in a normal wound” value (leukocytes) was “enhances”. For the same molecule, the “leukocytes' activation in the wound (myeloperoxidase, MPO, by ELISA)” value (leukocytes; [3]) was “significant increases” and the “leukocytes' migration in the wound (H&E staining)” value (leukocytes; [3]) was “significant increases”.
